Numbering of substitutions follows the chain as printed. Where two headings read alike, the source gives them in different places.

Among the data in patent US20240239875A1 (published 2024) are EC50 values, retold here.

What all share (assay): ELISA
Background: An ELISA detects its analyte on a solid surface through an enzyme-linked reagent.

In experiment [1] the target is SARS-CoV-2 receptor binding domain (UniProt P0DTC2 319-541).
In experiment [2] the target is T1, SARS-CoV-2 prefusion stabilized trimer protein (WIV02 isolate spike protein) (UniProt P0DTC2 14-1213).
A further experiment addresses SARS-CoV-2 S2 domain (UniProt P0DTC2 686-1213).
For experiment [3], the target named is T1, SARS-CoV-2 prefusion stabilized trimer …. This is another data set of the same source.
A further experiment deals with SARS-CoV-1 spike protein (SARS-CoV-1, UniProt P59594 14-1195).
Another experiment addresses T2, MERS spike protein (MERS-CoV, UniProt K9N5Q8 18-1296).
T2 chain: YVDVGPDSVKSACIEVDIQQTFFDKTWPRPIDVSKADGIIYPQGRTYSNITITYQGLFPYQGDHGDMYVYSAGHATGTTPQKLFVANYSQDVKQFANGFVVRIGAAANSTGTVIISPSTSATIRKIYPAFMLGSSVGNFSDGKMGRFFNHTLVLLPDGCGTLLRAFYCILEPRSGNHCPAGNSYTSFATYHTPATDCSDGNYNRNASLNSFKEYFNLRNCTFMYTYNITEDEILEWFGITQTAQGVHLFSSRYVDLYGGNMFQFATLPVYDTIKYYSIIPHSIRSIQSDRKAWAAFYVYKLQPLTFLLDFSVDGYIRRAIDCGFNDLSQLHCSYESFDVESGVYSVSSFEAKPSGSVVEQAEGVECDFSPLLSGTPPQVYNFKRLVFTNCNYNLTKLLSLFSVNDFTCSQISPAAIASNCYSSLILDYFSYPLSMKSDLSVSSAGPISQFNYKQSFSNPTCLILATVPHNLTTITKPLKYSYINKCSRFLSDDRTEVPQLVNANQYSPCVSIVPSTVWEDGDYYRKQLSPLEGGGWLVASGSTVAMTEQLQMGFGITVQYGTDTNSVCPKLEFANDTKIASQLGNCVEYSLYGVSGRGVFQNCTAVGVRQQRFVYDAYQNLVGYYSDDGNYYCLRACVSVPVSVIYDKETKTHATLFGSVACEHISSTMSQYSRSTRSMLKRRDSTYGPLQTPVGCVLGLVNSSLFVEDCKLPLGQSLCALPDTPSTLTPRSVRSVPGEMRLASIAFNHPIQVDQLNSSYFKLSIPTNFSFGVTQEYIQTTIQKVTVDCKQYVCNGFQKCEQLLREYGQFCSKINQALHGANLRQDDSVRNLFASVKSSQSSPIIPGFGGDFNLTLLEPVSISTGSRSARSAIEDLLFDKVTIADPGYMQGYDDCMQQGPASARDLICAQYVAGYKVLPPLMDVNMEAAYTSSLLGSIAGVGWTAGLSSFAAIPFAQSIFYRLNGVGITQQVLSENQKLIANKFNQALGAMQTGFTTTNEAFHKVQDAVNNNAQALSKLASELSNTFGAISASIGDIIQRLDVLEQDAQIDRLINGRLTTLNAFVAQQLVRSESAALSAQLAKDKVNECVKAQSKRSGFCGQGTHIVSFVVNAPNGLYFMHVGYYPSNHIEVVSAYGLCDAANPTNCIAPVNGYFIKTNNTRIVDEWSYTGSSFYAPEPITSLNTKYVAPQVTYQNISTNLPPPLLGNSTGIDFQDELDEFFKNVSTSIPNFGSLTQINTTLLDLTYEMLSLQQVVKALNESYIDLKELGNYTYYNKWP

B1: 4-K13-A (antibody, V domains shown)
VH: QAYLQQSGAELVRPGASVKMSCKASGYTFTSYTVHWVKQTPRQGLEWIGAIYPGNVDTSYNQNFKGKATLTVDKSSSTAYMQLSSLTSEDSAVYFCARDGYYAMDYWGQGTSVTVSS
VL: not shown
As a reminder, the EC50 is the midpoint of the concentration-response curve. A low value points to higher potency in that assay. Turning to B1, the EC50 in experiment [1] was determined as 0.15 nM; in experiment [2] it was 0.14 nM; in the experiment with SARS-CoV-2 S2 domain it was 87 nM.

B2: 9-L13-A (antibody, V domains shown)
VH: QVQLKESGPGLVAPSQSLSITCTVSGFSLTSYAISWVRQPPGKGLEWLGLIWTGGGTNYNSALKSRLSISKDNSKSQIFLKMNSLQTDDTARYYCARGPPLIYYGDLYYFDYWGQGTTLTVSS
VL: DIQMTQSPSSLSASLGGKVTITCKASQDINKYIAWYQHKPGKGPRLLIHYTSTLQPGIPSRFSGSGSGRDYSFSISNLEPEDIATYYCLQYDNLWTFGGGTKLEIK
Take B2: the EC50 in experiment [3] was 8.18 nM; in experiment [1], 26.9 nM; in experiment [2] it was 8.45 nM; with SARS-CoV-1 spike protein it was 6.31 nM.

B3: 4-C3-A (antibody, V domains shown)
VH: EVQLQQSGPELVKPGASVKISCKASGYSFTGYYMHWVKQSHGNILDWIGYIYPYNGVSSYNQKFKGKATLTVDKSSSTAYMELRSLTSEASAVYYCARAYGSSYDYYYGLDYWGQGTSVTVSS
VL: DIVLTQSPASLAVSLGQRATISCKASQSVDYDGAGYMNWYQQKPGQPPKLLISSASNLQSGIPARFSGSGSGTDFTLNIHPVEEEDAATYYCQQSNDDPYTFGGGTKLEIK
B3: the EC50 in experiment [3] turned out to be 0.08 nM; in experiment [2], 0.54 nM; with SARS-CoV-2 S2 domain, 81.1 nM.

B4: 2-P2-A (antibody, V domains shown)
VH: EVQLQQSGAELVRPGSSVKMSCKTSGYTFTSYGINWVKQRPGQGLEWIGYIYIGNGYTEYNEKFKGKATLTSDTSSSTAYMQLSSLTSEDSAIYFCARGGVDYWGQGTTLTVSS
VL: DVLMTQTPLSLPVSLGDQASISCRSSQSIVHSNGNTYLEWYLQKPGQSPKLLIYKVSNRFSGVPDRFSGSGSGTDFTLKISRVEAEDLGVYYCFQGSHVPYTFGGGTKLEIK
For B4, the EC50 turned out to be 0.12 nM in experiment [3]; 89.5 nM in experiment [1]; 0.13 nM in experiment [2]; 0.19 nM with SARS-CoV-1 spike protein; 0.07 nM with SARS-CoV-2 S2 domain.

B5: 9-P9-A (antibody, V domains shown)
VH: DVKLVESGEGLVKPGGSLKLSCAASGFSFSNFGMSWVRQTPEKRLEWVAYISSGGDYIYYADTVKGRFTISRDNARNTLYLQMSSLKSEDTAIYYCTRGYFDYWGQGTTLTVSS
VL: B4 VL with K55T, I111M, K112R
Consider B5, for which the EC50 amounted to 0.05 nM in experiment [3], 0.05 nM in experiment [2], 0.06 nM with SARS-CoV-1 spike protein and 0.04 nM with SARS-CoV-2 S2 domain.

B6: 5-H22-A (antibody, V domains shown)
VH: QVQLQQSGAELVRPGASVTLSCKASGYTFTDYEMHWMKQTPVHGLEWIGAIDLETGGTVYNQKFKGKAILTADKSSNTAYMALRSLTSEDSAVYYCTREFPHYYGSRYGFPYWGQGTLVTVSA
VL: QIVLTQSPAIMSASPGEKVTITCSASSSVSYMHWLQQKPGTSPKLWIYSTSNLASGVPARFSGSGSGTSYSLTISRMEAEDAATYYCQQRSSYPYTFGGGTKLEIK
Take B6: the EC50 in experiment [3] worked out at 18.5 nM; in experiment [1], 166 nM; in experiment [2] it was 75.5 nM.

B7: 6-L8-A (antibody, V domains shown)
VH: EVQLQQSVAELVRPGASVKLSCTPSGFNIKNTYMHWMKQRPEQGLEWIGRINPANDDTKYAPKFQDKATITADTSSNTAYLQLSSLTSEDTAIYYCVYDVRWYFDVWGTGTTVTVSS
VL: DVVMTQTPLSLPVSLGDQASISCRSSQGLVHSNGNTYLHWYLQKPGQSPKLLIYKVSNRFSGVPDRFSGSGSGTDFTLKISRVEAEDLGVYFCSQSTHVPPTFGAGTKLELK
In the case of B7, the EC50 in experiment [3] came out at 6.8 nM; in experiment [2], 7.46 nM; with SARS-CoV-1 spike protein, 43.5 nM.

B8: 8-N24-A (antibody, V domains shown)
VH: QVQLQQPGAELVKPGASVKVSCKASGYTFTSYWMHWVKQRPGQGLEWIGRIHPSDSDTNYYQKFKGKATLSVDKSSSTAYMQLSSLTSEDSAVYYCAIPLYSYDNSGGYYPMDYWGQGTSVTVSS
VL: DIVMTQSQKFMSTSVGDRVTITCKASQNVRTAVAWYQQKPGQSPKKLIYLASNRHTGVPDRFTGSGSGTDFTLAISNVQSEDLADYFCLQHWNYPFTFGSGTRLEIK
As for B8, the EC50 in the experiment with SARS-CoV-1 spike protein was 59 nM; with SARS-CoV-2 S2 domain it was 4.43 nM.

B9: 3-E13-A (antibody, V domains shown)
VH: EVQLQQSGPELVKPGASVKMSCKASGYTFTDYNIHWVKQSHGKSLEWIGYINPNNGGTDYNQKFQGKATLTVNKSSSTAYMELRSLTSEDFAVYYCARGGFYGNYGAYYGMDFWGQGTSVTVSS
VL: DIQMTQSPASLSASVGETVTITCRTSENIYSHLAWYQQTQGKSPQLLVYNAKTLAEGVPSRFSGSGSGTHFSLKINSLQPEDFGSYYCQHHYGIPPEFGGGTKLEIK
With B9, the EC50 in experiment [3] was 0.08 nM; in experiment [2] it was 0.08 nM; with SARS-CoV-1 spike protein, 0.16 nM; in the experiment with SARS-CoV-2 S2 domain, 0.05 nM.

B10: 6-C19-A (antibody, V domains shown)
VH: B9 VH with N73D, F91S, A107S
VL: B9 VL with Q45H, H70Q, Y87F
For the molecule B10, the EC50 was determined as 0.48 nM in experiment [3], 0.49 nM in experiment [2], 1.98 nM with SARS-CoV-1 spike protein and 0.39 nM in the experiment with SARS-CoV-2 S2 domain.

B11: 2-J9-A (antibody, V domains shown)
VH: B9 VH with F91S
VL: B9 VL with A51T, S63T, H70Q
Take B11: the EC50 in experiment [3] stood at 0.11 nM; in experiment [2], 0.08 nM; in the experiment with MERS spike protein, 1.83 nM; in the experiment with SARS-CoV-1 spike protein it was 0.17 nM; with SARS-CoV-2 S2 domain it was 0.05 nM.
